How the values were obtained:
[1] = biological target: TGF-β receptor (type I and II receptors) on mouse cells (MFB-F11 fibroblasts, mouse splenocytes, mouse CD4+ T cells) (mouse) (UniProt Q64729); test: cell-based or functional assay
[2] = biological target: TGF-β receptor on human peripheral blood CD4+ T cells (human) (UniProt P36897); test: cell-based or functional assay
Sequence of UniProt P36897 (P36897 34-503, chain 1 of 2): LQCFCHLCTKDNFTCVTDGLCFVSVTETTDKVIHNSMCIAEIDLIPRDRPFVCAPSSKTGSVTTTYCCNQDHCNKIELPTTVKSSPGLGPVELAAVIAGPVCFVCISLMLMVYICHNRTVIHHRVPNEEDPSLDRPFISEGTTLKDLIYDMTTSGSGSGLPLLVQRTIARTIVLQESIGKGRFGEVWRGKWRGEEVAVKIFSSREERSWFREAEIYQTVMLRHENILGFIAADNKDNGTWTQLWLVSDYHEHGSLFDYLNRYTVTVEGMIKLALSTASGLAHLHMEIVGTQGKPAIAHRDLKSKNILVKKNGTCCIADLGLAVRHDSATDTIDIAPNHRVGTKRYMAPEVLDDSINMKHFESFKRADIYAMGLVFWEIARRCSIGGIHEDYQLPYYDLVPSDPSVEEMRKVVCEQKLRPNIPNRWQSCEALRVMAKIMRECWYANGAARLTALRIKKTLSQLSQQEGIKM
Sequence of UniProt P36897 (P37173 23-567, chain 2 of 2, further chain): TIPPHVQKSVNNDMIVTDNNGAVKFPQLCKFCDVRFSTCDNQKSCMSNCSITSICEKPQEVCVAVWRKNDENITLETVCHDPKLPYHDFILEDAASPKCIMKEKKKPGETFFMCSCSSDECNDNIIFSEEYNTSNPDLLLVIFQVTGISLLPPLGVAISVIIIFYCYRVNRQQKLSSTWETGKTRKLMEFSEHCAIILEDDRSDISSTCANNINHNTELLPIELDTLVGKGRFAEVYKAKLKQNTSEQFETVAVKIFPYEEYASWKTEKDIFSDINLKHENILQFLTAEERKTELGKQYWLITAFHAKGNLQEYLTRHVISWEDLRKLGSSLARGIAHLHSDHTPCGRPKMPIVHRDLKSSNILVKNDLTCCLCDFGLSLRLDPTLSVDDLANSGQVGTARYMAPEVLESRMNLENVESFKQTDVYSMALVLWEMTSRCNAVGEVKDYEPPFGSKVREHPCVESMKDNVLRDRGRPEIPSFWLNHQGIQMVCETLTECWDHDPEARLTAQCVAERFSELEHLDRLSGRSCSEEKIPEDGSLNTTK

Sequence of UniProt Q64729 (Q64729 30-503, chain 1 of 2): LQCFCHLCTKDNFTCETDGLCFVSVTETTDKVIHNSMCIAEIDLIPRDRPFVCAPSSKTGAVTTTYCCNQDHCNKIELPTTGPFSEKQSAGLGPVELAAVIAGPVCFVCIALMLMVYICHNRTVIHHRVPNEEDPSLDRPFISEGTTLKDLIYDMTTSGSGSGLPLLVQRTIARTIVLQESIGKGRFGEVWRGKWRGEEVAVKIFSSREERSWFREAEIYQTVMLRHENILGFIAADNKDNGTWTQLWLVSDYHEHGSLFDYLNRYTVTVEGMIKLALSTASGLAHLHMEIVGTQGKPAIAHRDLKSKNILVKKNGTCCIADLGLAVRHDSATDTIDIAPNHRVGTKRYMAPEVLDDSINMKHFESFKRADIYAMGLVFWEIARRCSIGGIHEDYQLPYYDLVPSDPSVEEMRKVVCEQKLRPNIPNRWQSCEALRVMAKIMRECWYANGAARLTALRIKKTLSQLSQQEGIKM
Sequence of UniProt Q64729 (Q62312 24-567, chain 2 of 2, further chain): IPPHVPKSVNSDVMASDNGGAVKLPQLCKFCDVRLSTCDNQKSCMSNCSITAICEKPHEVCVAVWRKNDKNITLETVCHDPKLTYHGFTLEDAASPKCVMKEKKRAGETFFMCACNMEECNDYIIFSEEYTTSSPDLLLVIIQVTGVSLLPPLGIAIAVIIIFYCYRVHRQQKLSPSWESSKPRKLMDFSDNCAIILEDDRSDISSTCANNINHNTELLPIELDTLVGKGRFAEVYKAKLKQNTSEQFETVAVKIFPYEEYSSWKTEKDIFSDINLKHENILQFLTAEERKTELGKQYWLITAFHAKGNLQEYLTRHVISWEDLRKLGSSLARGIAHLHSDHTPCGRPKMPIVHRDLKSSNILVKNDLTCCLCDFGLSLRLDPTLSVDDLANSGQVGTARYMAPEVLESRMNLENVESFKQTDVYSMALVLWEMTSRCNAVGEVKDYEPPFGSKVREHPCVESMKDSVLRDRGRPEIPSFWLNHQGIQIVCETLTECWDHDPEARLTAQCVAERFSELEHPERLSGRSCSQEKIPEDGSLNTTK

| Substance | Foxp3+ Treg conversion, % of all mouse CD4+ cells at 10 ng/ml (0.78 nM monomeric hTGF-β1) [1] [%] | MFB-F11 reporter cells, alkaline phosphatase, OD405 at 100 ng/ml (maximum signal) [1] [OD405] | Foxp3+ Treg conversion, % of all mouse CD4+ cells at 38.1 ng/ml (0.78 nM) [1] [%] | CD4+CD25+Foxp3+ Treg among human CD4+ T cells, maximum [2] [%] |
| --- | --- | --- | --- | --- |
| recombinant human TGF-β1 (R&D Systems) (from UniProt P01137 279-390) (ligand) | 79.7 | 1.48 |  |  |
| H. polygyrus TGF-β Mimic (TGM), purified recombinant protein with hexa-histidine C-terminal tag (ligand) |  | 2.46 | 90.7 | 84 |

— patent US11866467
